This is an account of results in US20230071889A1 (OSE IMMUNOTHERAPEUTICS, published 2023).

For assay [1], the target named is T1, CD132 receptor (Sinobiological 10555-H08B) (UniProt P31785 23-254).
T1 construct: Bought protein injected over the CD127/IL-7 complex in Biacore; also called common γ chain
T1 sequence (looked up): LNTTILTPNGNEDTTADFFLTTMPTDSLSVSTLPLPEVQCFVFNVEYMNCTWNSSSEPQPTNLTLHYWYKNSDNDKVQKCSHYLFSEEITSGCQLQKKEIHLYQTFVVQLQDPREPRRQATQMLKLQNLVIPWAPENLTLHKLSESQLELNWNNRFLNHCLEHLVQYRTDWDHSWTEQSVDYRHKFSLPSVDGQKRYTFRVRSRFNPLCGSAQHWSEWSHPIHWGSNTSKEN
In words: Biacore, CD132 injected over the CD127/IL-7 complex on the chip. The procedure:
CD127 (Sinobiological, 10975-H03H-50) was immobilized onto a CM5 biochip at 20 μg/ml and the indicated protein were added at serial concentrations (0.34; 1.03; 3.11; 9.3; 28 nM).
A general note: SPR reads the build-up and loss of mass on a sensor chip optically.

Assay [2] deals with T2, recombinant human PD-1 (Example 2) (human, UniProt Q15116 25-167, limits assumed, biotinylated in the PD-L1 ELISA (site not stated)).
T2 construct: Biotinylated form in the ELISA on PD-L1; recombinant human PD-1 (100 nM) in the Biacore assay on PD-L2; also called biotinylated recombinant human PD-1; PD-1 recombinant protein
T2 sequence (Q15116 25-167 limits assumed): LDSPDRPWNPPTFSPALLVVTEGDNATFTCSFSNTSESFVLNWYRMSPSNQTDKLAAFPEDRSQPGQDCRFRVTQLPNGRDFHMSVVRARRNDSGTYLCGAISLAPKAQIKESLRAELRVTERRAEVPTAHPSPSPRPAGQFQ
In words: competition ELISA: PD-L1 coated, antibody mixed with biotinylated PD-1 at 0.6 ug/mL, streptavidin peroxidase; blocked ligand PD-L1. A general note: An ELISA detects its analyte on a solid surface through an enzyme-linked reagent.

B1: recombinant IL-7 cytokine (rIL7) (Biorad PHP046) (ligand, human, UniProt P13232 26-177, looked up)
chain: DCDIEGKDGKQYESVLMVSIDQLLDSMKEIGSNCLNNEFNFFKRHICDANKEGMFLFRAARKLRQFLKMNSTGDFDLHLLKVSEGTTILLNCTGQVKGRKPAALGEAQPTKSLEENKSLKEQKKLNDLCFLKRLLQEIKTCWNKILMGTKEH
notes: Bought cytokine
Regarding B1, the affinity in assay [1], expressed as Kd, was 0.198 µM.

B2: anti-PD1 antibody, chimeric form (antibody, human IgG4 S228P, kappa, V domains shown)
VH: QIQLVQSGPELKKPGETVKISCKASGYTFTHYGMNWVKQAPGKGLKWMGWINTNTGEPTYAEEFKGRFAFSLETSASAAFLQINNLKNEDTATYFCAKEREPGMDSWGQGTSVTVSS
VL: DVLLTQTPLSLPVSLGDQASISCRSSQNIVHANGNTYLEWYLQKPGQSPKLLIYKVSNRFSGVPDRFSGSGSGTDFTLKITRVEAEDLGVYYCFQGSHVPNTFGGGTKLEIKR
notes: also called anti-PD1 alone
Consider B2, for which, in assay [2], the “IC50 (read off the curve)” value is approximately 0.004 µM.
